In the series the target is T1, ParB (Myxococcus xanthus DK1050, UniProt Q1CVJ4 1-296).
T1 sequence: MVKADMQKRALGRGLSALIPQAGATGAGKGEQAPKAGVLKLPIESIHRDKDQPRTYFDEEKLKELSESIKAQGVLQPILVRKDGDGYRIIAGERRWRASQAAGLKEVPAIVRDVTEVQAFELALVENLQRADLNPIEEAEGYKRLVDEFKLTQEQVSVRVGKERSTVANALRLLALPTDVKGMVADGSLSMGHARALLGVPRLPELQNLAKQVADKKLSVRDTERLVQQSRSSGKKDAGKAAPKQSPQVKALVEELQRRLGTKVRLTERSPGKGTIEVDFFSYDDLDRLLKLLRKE
The experiment in a line: EMSA (polyacrylamide); single retarded band up to highest ParB; 40 mM Na-phosphate pH 8, 20 mM NaCl, 7% glycerol, 20 ug/ml BSA, 100 ug/ml sheared salmon sperm DNA, 30 C (30 min agarose, 1 h polyacrylamide); gels run at 4 C. As to conditions: protein: recombinant; tags: intein-chitin tag (pTYB12) removed by on-column DTT cleavage; chain copies: 2; label: 32P 5' end; blunt. A general note: Mobility shift assays separate free from complexed probe on a gel.

B1: parS 50 bp consensus (dsDNA)
DNA 1: ACTCACTCATGGCCTCCGTGTTCCACGTGGAACGAAGGATGACTCGAGCA
DNA 2: TGCTCGAGTCATCCTTCGTTCCACGTGGAACACGGAGGCCATGAGTGAGT
With B1, the binding result was “binds”.

The values are drawn from publication PMC3899335, “ParABS System in Chromosome Partitioning in the Bacterium Myxococcus xanthus”.
